Here are results for 28 molecules from patent US20250136721A1 (GlaxoSmithKline, published 2025).

Test [1] has as its target pre-existing anti-VH ADA in human serum. The test can be described thus: ADA confirmation assay (MSD): 10 ug/mL test material against labelled DOM1H-131-206, mean of 10 sera.
The target is the same in test [2]. In words: ADA confirmation assay (MSD): 10 ug/mL test material against labelled DOM1H-131-206; share of 10 ADA-positive sera with binding.
For test [3] the target is unchanged. The test can be described thus: ADA confirmation assay (MSD): 10 ug/mL test material against labelled DOM1H-131-206, mean of 10 sera. This is another data set of the same source.
Test [4] shares this target. The test can be described thus: ADA confirmation assay (MSD): 10 ug/mL test material against labelled DOM1H-131-206; share of 10 ADA-positive sera with binding. The source holds these as a separate data set.
Test [5] shares this target. The test can be described thus: ADA confirmation assay (MSD) described previously, mean of 10 donor sera.
In test [6] the target is T1, Recombinant human TNFR1-Fc (human, UniProt P19438 30-211, limits assumed).
T1 construct: bought reagent; also called hTNFR1:Fc; not shown: Fc part; not described
T1 sequence (looked up): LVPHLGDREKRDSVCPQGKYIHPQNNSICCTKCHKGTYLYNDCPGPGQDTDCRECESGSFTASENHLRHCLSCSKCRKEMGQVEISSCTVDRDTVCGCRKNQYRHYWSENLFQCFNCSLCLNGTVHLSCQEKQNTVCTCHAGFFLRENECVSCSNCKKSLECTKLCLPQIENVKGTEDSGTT
The test can be described thus: ELISA: dAb on coated recombinant human TNFR1-Fc, anti-Vh detection. For orientation: An ELISA detects its analyte on a solid surface through an enzyme-linked reagent.

One may read the EC50 as the midpoint of the concentration-response curve.

Substitutions are numbered along the chain they refer to. Names may count otherwise. Read-outs that look alike come from different tables or passages of the source.

B1: DOM1H-131-206 C-terminal AST (protein)
VH: EVQLLESGGGLVQPGGSLRLSCAASGFTFAHETMVWVRQAPGKGLEWVSHIPPDGQDPFYADSVKGRFTISRDNSKNTLYLQMNSLRAEDTAVYHCALLPKRGPWFDYWGQGTLVTVSSAST
Consider B1, for which the Mean % inhibition of signal in confirmation assay is 26.4% in test [1] and 35% in test [3]. The results for the % subjects with ADA binding (10 subjects) (% of subjects) in test [2] and in test [4] were 50 and 20, respectively.

B2: DOM1H-131-206 C-terminal ASTKG (protein)
VH: EVQLLESGGGLVQPGGSLRLSCAASGFTFAHETMVWVRQAPGKGLEWVSHIPPDGQDPFYADSVKGRFTISRDNSKNTLYLQMNSLRAEDTAVYHCALLPKRGPWFDYWGQGTLVTVSSASTKG
As for B2, the Mean % inhibition of signal in confirmation assay in test [1] is 28.3%; in test [3] it was 1.77%. Also, in test [2], the % subjects with ADA binding (10 subjects) (% of subjects) is 40.

B3: DOM1H-131-206 P14K + C-terminal ASTKG (protein, name in Kabat numbering)
VH: B2 VH with P14K
On to B3, for which, in test [3], the Mean % inhibition of signal in confirmation assay amounted to 25%. The molecule further came in with a % subjects with ADA binding (10 subjects) (% of subjects) in test [4] of 10.

B4: DOM1H-131-206 P14Q + C-terminal ASTKG (protein, name in Kabat numbering)
VH: B2 VH with P14Q
On to B4, for which, in test [3], the Mean % inhibition of signal in confirmation assay came to 21.8%. In test [4], this molecule displayed a % subjects with ADA binding (10 subjects) (% of subjects) of 10.

B5: DOM10H-53-567 C-terminal A (protein)
VH: GVQLLESGGGLVQPGGSLRLSCAASGFVFAWYDMGWVRQAPGKGLEWVSSIDWHGEVTYYADSVKGRFTISRDNSKNTLYLQMNSLRAEDTAVYYCATAEDEPGYDYWGQGTLVTVSSA
B5 displayed a % inhibition in confirmation assay in test [5] of 12.8%.

B6: DOM1H-131-206 G44E (other, name in Kabat numbering)
VH: EVQLLESGGGLVQPGGSLRLSCAASGFTFAHETMVWVRQAPGKELEWVSHIPPDGQDPFYADSVKGRFTISRDNSKNTLYLQMNSLRAEDTAVYHCALLPKRGPWFDYWGQGTLVTVSS
notes: VH dAb variant
Take B6: the EC50 in test [6] is 0.86 nM. The same molecule came in with a Mean % inhibition of signal in confirmation assay in test [1] of 99.5%. The molecule also registered a % subjects with ADA binding (10 subjects) (% of subjects) in test [2] of 100.

B7: DOM1H-131-206 L11A (protein, name in Kabat numbering)
VH: B6 VH with L11A, E44G
For B7, the Mean % inhibition of signal in confirmation assay in test [3] turned out to be 98%. In addition, the % subjects with ADA binding (10 subjects) (% of subjects) in test [4] came out at 100.

B8: DOM1H-131-206 P14T (protein, name in Kabat numbering)
VH: B6 VH with P14T, E44G
For the molecule B8, the Mean % inhibition of signal in confirmation assay in test [3] was 68.9%. Further, the % subjects with ADA binding (10 subjects) (% of subjects) in test [4] stood at 100.

B9: DOM1H-131-206 P14K (protein, name in Kabat numbering)
VH: B6 VH with P14K, E44G
Regarding B9, in test [3], the Mean % inhibition of signal in confirmation assay worked out at 46.7%. The % subjects with ADA binding (10 subjects) (% of subjects) in test [4] is 50.

B10: DOM1H-131-206 P14E (protein, name in Kabat numbering)
VH: B6 VH with P14E, E44G
In test [3], B10 gave a Mean % inhibition of signal in confirmation assay of 47.2%. This molecule also registered a % subjects with ADA binding (10 subjects) (% of subjects) in test [4] of 60.

B11: DOM1H-131-206 T110A (protein, name in Kabat numbering)
VH: B6 VH with E44G, T116A
In turn, B11 came in with a Mean % inhibition of signal in confirmation assay in test [3] of 78.8%. The molecule also had a % subjects with ADA binding (10 subjects) (% of subjects) in test [4] of 100.

B12: DOM1H-131-206 S112A (protein, name in Kabat numbering)
VH: B6 VH with E44G, S118A
As to B12, in test [3], the Mean % inhibition of signal in confirmation assay was found to be 77.1%. In test [4], this molecule returned a % subjects with ADA binding (10 subjects) (% of subjects) of 80.

B13: DOM1H-131-206 L108A (protein, name in Kabat numbering)
VH: B6 VH with E44G, L114A
Turning to B13, the Mean % inhibition of signal in confirmation assay in test [3] came out at 94.3%. In addition, in test [4], the % subjects with ADA binding (10 subjects) (% of subjects) worked out at 100.

B14: DOM1H-131-206 P14A (protein)
VH: B6 VH with P14A, E44G
Consider B14, for which the Mean % inhibition of signal in confirmation assay in test [1] was 58.3%. For the same molecule, the % subjects with ADA binding (10 subjects) (% of subjects) in test [2] was found to be 100.

B15: DOM1H-131-206 P14Q (protein, name in Kabat numbering)
VH: B6 VH with P14Q, E44G
In the case of B15, in test [3], the Mean % inhibition of signal in confirmation assay came to 52.9%. The % subjects with ADA binding (10 subjects) (% of subjects) in test [4] worked out at 60.

B16: DOM1H-131-206 P41A (other, name in Kabat numbering)
VH: B6 VH with P41A, E44G
notes: VH dAb variant
For the molecule B16, the EC50 in test [6] stood at 0.59 nM. In test [1], the Mean % inhibition of signal in confirmation assay is 87.3%. In test [2], this molecule yielded a % subjects with ADA binding (10 subjects) (% of subjects) of 100.

B17: DOM1H-131-206 H91S (other, name in Kabat numbering)
VH: B6 VH with E44G, H95S
notes: VH dAb variant
On to B17, for which the EC50 in test [6] was found to be 0.96 nM. Moreover, in test [1], the Mean % inhibition of signal in confirmation assay came to 99.4%. The molecule further returned a % subjects with ADA binding (10 subjects) (% of subjects) in test [2] of 100.

B18: DOM1H-131-206 K43A (other, name in Kabat numbering)
VH: B6 VH with K43A, E44G
notes: VH dAb variant
Regarding B18, the EC50 in test [6] was determined as 0.67 nM. This molecule yielded a Mean % inhibition of signal in confirmation assay in test [1] of 99.5%. The molecule further came in with a % subjects with ADA binding (10 subjects) (% of subjects) in test [2] of 100.

B19: DOM1H-131-206 G44E, H91S (other, name in Kabat numbering)
VH: B6 VH with H95S
notes: VH dAb variant
Regarding B19, the EC50 in test [6] came to 3.5 nM. In test [1], this molecule came in with a Mean % inhibition of signal in confirmation assay of 99.1%. In test [2], this molecule showed a % subjects with ADA binding (10 subjects) (% of subjects) of 100.

B20: DOM1H-131-206 R83A (other, name in Kabat numbering)
VH: B6 VH with E44G, R87A
notes: VH dAb variant
Consider B20, for which the 50% effective concentration (EC50) in test [6] stood at 0.76 nM. The same molecule yielded a Mean % inhibition of signal in confirmation assay in test [1] of 99.3%. This molecule had a % subjects with ADA binding (10 subjects) (% of subjects) in test [2] of 100.

B21: DOM1H-131-206 G44E, L108Q (other, name in Kabat numbering)
VH: B6 VH with L114Q
notes: VH dAb variant
On to B21, for which, in test [6], the 50% effective concentration (EC50) came out at 1.64 nM. In test [1], this molecule registered a Mean % inhibition of signal in confirmation assay of 91.3%. In addition, in test [2], the % subjects with ADA binding (10 subjects) (% of subjects) turned out to be 100.

B22: DOM1H-131-206 P14A, G44E (other, name in Kabat numbering)
VH: B6 VH with P14A
notes: VH dAb variant
Consider B22, for which the EC50 in test [6] is 2.03 nM. Further, the Mean % inhibition of signal in confirmation assay in test [1] amounted to 61.6%. This molecule also registered a % subjects with ADA binding (10 subjects) (% of subjects) in test [2] of 100.

B23: DOM1H-131-206 P14A, H91S (other, name in Kabat numbering)
VH: B6 VH with P14A, E44G, H95S
notes: VH dAb variant
As to B23, the EC50 in test [6] amounted to 0.75 nM. Besides, the Mean % inhibition of signal in confirmation assay in test [1] is 50.2%. In test [2], the % subjects with ADA binding (10 subjects) (% of subjects) came out at 60.

B24: DOM1H-131-206 P14K + C-terminal A (protein, name in Kabat numbering)
VH: EVQLLESGGGLVQKGGSLRLSCAASGFTFAHETMVWVRQAPGKGLEWVSHIPPDGQDPFYADSVKGRFTISRDNSKNTLYLQMNSLRAEDTAVYHCALLPKRGPWFDYWGQGTLVTVSSA
Take B24: the Mean % inhibition of signal in confirmation assay in test [3] was determined as 29.1%. This molecule returned a % subjects with ADA binding (10 subjects) (% of subjects) in test [4] of 10.

B25: DOM1H-131-206 P14T + C-terminal A (protein, name in Kabat numbering)
VH: B24 VH with K14T
As for B25, the Mean % inhibition of signal in confirmation assay in test [3] is 33%. This molecule displayed a % subjects with ADA binding (10 subjects) (% of subjects) in test [4] of 20.

B26: DOM1H-131-206 P14Q + C-terminal A (protein, name in Kabat numbering)
VH: B24 VH with K14Q
In turn, B26 displayed a Mean % inhibition of signal in confirmation assay in test [3] of 29.7%. In test [4], this molecule returned a % subjects with ADA binding (10 subjects) (% of subjects) of 20.

B27: DOM10H-53-567 (protein)
VH: GVQLLESGGGLVQPGGSLRLSCAASGFVFAWYDMGWVRQAPGKGLEWVSSIDWHGEVTYYADSVKGRFTISRDNSKNTLYLQMNSLRAEDTAVYYCATAEDEPGYDYWGQGTLVTVSS
B27: the % inhibition in confirmation assay in test [5] turned out to be 95.1%.

B28: DOM1H-131-206 C-terminal S deletion (ΔS) (protein)
VH: EVQLLESGGGLVQPGGSLRLSCAASGFTFAHETMVWVRQAPGKGLEWVSHIPPDGQDPFYADSVKGRFTISRDNSKNTLYLQMNSLRAEDTAVYHCALLPKRGPWFDYWGQGTLVTVS
B28 yielded a Mean % inhibition of signal in confirmation assay in test [3] of 44.7%. In test [4], this molecule showed a % subjects with ADA binding (10 subjects) (% of subjects) of 40.
